The record followed here is the emibetuzumab library of Makowski et al. (2022).

B1: VH:VL chains; a variant is named by its letters at X, in order (parent)
chain 1: QVQLVQSGAEVKKPGASVKVSCKASGYTFTDYXMHWVRQAPGQGLEWMGXVNPNXXXTTYNQKFEGRVTMTTDTSTSTAYMELRSLRSDDTAVYYCARXNXLDXWGQGTTVTVSS
chain 2: DIQMTQSPSSLSASVGDRVTITCSVSSSVSSIYLHWYQQKPGKAPKLLIYSTSNLASGVPSRFSGSGSGTDFTLTISSLQPEDFATYYCQVYSGYPLTFGGGTKVEIK

The variants in this data set derive from B1. Nature of the data set: yeast display scFab, FACS + sequencing. A digest of the protocol:
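Non-specific binding was called from deep sequencing of sorted yeast cells displaying a heavy-chain CDR mutant scFab library. Cells labelled with anti-Myc and biotinylated ovalbumin (260 μg/mL in PBSB, 3 h, room temperature) or soluble membrane proteins (130 μg/mL, 20 min on ice) were FACS-sorted, collecting the top 25% and bottom 10% of binders from two replicates. A sequence was positive when present in ≥3 of 4 pooled positive samples and absent from all negatives, and negative under the converse rule.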
For YTKAASWV, the non-specific binding call is “no binding”. The result for DTTGSALD reads “no binding”; that for DTKAADWV, “no binding”. Under DTKAADWY stands “no binding”; under YTKRSAVV, “binds”; under FTGTSAAF, “binds”. Under STRGADAV stands “no binding”. As to ATRTDDVF, the non-specific binding call is reported as “no binding”. The result for FTTGGSAV chain 1 M48I reads “no binding”; that for VTTKSAVA, “no binding”; that for DTGTSDLY, “no binding”. Under DTTKGDVA stands “no binding”; under DTTKGDVV, “no binding”; under DTTKGDGS, “no binding”. The result for FTTRGAVA reads “no binding”.

Take YTRGADGV: the non-specific binding call is listed as “no binding”. The result for YTRGADGS reads “no binding”; that for YTRGADGA, “no binding”; that for DTTGSDWY, “no binding”.

For the variant DTTGSDWV, the non-specific binding call is “no binding”. As for DTTGSDWA, the non-specific binding call is listed as “no binding”. The result for YTRAGAAA reads “binds”.

In the case of YTTGGSSA, the non-specific binding call is on record as “no binding”.

As for VTTKSSVA, the non-specific binding call is “no binding”. Under VTTGSASF stands “no binding”. The result for YTGTSDLD reads “no binding”. Under YTGTSDLV stands “no binding”; under YTGTSDLA, “no binding”. With FTRESFAA, the non-specific binding call is reported as “binds”.

As to DTKGDSVS, the non-specific binding call is “no binding”.

Regarding ATKGAAVA, the non-specific binding call is reported as “no binding”. Under VTKTGDAV stands “no binding”; under YTRAGSAA, “binds”; under DTREGDGA, “no binding”.

On to FTRRSSLF chain 1 V111I, for which the non-specific binding call was “binds”. Under VTKGGSSA stands “no binding”; under STKAASWV, “no binding”. The result for YTRGAALA reads “no binding”. Under ATTKSDAA stands “no binding”. YTGTSAWA: the non-specific binding call is “no binding”. The result for VTTGGAVD reads “no binding”.

With YTRGSAWV, the non-specific binding call is reported as “binds”. Under STTKSDGV stands “no binding”; under DTKAADGV, “no binding”; under VTKETFSF, “no binding”. The result for DTTKSSSS reads “no binding”. Under VTTKSAGD stands “no binding”; under VTTKSAGV, “no binding”; under YTRGASSS, “no binding”. Turning to YTREGAVA, the non-specific binding call is “no binding”. The result for YTTRGAGA reads “no binding”; that for YTRGADWY, “no binding”; that for YTRGADWA, “no binding”. Take YTRGADVV: the non-specific binding call is on record as “no binding”. In the case of YTRGADVA, the non-specific binding call was “no binding”.

FTRAGAAA: the non-specific binding call is “binds”. Under DTKAAAVV stands “no binding”; under ATTKSDGV, “no binding”. The result for ATTKSDGA reads “no binding”. Under YTRGAAGV stands “no binding”. Regarding YTRGAAGY, the non-specific binding call was “no binding”. Under DTTGGDGV stands “no binding”; under DTREGDAV, “no binding”.

YTKEASGY: the non-specific binding call is “binds”.

For the variant DTTRDDSD, the non-specific binding call is reported as “no binding”. Under FTKGSAGY stands “binds”; under YTRGNAWA, “binds”. The result for STRKSYAA reads “binds”.

With YTKTSSVD, the non-specific binding call was “binds”. Under VTKESAAV stands “no binding”. Consider ATTGGDGV, for which the non-specific binding call is “no binding”. The result for YTTGGAVA reads “no binding”; that for ATKAASWV, “no binding”. Under VTTKSYLV stands “no binding”. The result for YTKRGSAA reads “binds”. For the variant VTKAASWV, the non-specific binding call is listed as “no binding”. Under YTRGASGA stands “no binding”; under DTTRGAVA, “no binding”; under VTTRADVA, “no binding”.

Regarding VTTRADVF, the non-specific binding call is recorded as “no binding”. Under VTTRADVV stands “no binding”. Under VTTRADVY stands “no binding”. Under YTTGSASF stands “no binding”; under YTRGAASD, “no binding”.

With DTTEASLV, the non-specific binding call is “no binding”. For VTTEASLD, the non-specific binding call was “no binding”. Under ATTKSAVA stands “no binding”.

Turning to DTGTGSWD, the non-specific binding call is listed as “no binding”. The result for YTKKTFSY reads “binds”; that for STGTSDLY, “no binding”. The result for VTREGAVA reads “no binding”; that for YTTGGDWA, “no binding”. The result for STTGSASF reads “no binding”; that for VTTKSDLA, “no binding”. As for DTREGDVD, the non-specific binding call was “no binding”.

With DTREGDVY, the non-specific binding call is “no binding”. In the case of DTREGDVA, the non-specific binding call was “no binding”. The result for DTKAAAGD reads “no binding”; that for DTKRTAVA, “binds”. For YTGTSSLD, the non-specific binding call was “no binding”. Under VTTKSDVF stands “no binding”; under VTTKSDVA, “no binding”; under STTRGAVA, “no binding”. Under VTTRGAVA stands “no binding”; under ATTGSASF, “no binding”.
